The target in data set [1] is T1, MsmTOP1 full length (topoisomerase I) (Mycobacterium smegmatis mc2 155, UniProt A0R5D9 1-936).
T1 sequence: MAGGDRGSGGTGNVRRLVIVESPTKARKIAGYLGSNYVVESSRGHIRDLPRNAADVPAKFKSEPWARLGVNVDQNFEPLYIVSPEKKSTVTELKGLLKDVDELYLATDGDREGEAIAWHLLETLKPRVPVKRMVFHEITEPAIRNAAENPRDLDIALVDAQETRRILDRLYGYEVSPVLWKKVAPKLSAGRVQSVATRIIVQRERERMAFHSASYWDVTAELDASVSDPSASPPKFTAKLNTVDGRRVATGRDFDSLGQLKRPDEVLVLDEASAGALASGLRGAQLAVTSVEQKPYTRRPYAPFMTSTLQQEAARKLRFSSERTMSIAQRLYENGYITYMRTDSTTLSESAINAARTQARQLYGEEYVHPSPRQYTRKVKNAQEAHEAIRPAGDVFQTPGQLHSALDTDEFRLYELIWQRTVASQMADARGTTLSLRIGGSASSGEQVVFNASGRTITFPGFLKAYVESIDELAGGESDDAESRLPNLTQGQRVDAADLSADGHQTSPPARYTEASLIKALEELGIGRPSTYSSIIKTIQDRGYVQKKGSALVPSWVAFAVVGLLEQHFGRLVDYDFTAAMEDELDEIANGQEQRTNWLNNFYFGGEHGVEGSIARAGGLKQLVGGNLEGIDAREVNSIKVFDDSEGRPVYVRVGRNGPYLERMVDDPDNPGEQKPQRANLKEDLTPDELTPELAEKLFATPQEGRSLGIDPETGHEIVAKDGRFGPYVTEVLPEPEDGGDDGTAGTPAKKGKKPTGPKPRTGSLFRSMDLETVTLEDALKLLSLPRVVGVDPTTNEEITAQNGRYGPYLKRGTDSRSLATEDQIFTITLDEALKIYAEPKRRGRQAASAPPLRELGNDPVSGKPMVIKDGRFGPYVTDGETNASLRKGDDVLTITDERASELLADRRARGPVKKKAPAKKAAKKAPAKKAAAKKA
Briefly: fluorescence anisotropy; Kd could not be determined; no Mg2+, 0.1 mM EDTA; Anisotropy: 50 mM Tris-HCl pH 7.5, 100 mM NaCl, 0.1 mM EDTA, room temperature; crystal: 0.1 M Tris-HCl pH 8.5, 1.5 M lithium sulfate, 16 C, protein:ssDNA 1:2. The following applies: protein: recombinant; tags: His6-Mocr removed by TEV (N-terminal SNA left); label: 3' 6-carboxyfluorescein; single strand. (Polarisation of emitted light reports the rotation of a fluorescent probe.)

The target in another data set is T2, MsmTOP1-839t (D1-D7) (Mycobacterium smegmatis mc2 155, UniProt A0R5D9 1-839).
T2 sequence: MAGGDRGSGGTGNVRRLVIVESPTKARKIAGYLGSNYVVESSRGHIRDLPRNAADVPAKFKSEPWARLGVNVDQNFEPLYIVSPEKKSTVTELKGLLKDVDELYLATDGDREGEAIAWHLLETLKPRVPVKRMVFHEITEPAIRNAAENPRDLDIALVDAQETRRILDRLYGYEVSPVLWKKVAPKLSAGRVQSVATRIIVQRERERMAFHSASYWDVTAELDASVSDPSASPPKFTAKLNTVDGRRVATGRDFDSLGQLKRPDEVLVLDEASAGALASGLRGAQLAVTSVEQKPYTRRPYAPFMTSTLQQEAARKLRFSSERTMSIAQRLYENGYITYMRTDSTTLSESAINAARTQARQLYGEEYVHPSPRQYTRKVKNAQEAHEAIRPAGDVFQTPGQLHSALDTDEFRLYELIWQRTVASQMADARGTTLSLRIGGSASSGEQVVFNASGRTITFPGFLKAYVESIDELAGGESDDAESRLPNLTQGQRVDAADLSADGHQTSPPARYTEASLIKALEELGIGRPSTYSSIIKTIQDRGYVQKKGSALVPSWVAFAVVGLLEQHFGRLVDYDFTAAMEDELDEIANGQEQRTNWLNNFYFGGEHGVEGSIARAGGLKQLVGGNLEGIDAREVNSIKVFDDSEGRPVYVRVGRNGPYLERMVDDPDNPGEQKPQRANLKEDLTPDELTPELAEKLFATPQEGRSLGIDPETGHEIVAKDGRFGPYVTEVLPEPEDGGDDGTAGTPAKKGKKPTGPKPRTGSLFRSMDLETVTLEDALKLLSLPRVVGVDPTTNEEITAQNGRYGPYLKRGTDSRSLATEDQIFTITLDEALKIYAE
Nature of the data set: X-ray crystallography (3.1 A); no metal ion at active site; ssDNA at both N-terminal and D6-D7 domains; Anisotropy: 50 mM Tris-HCl pH 7.5, 100 mM NaCl, 0.1 mM EDTA, room temperature; crystal: 0.1 M Tris-HCl pH 8.5, 1.5 M lithium sulfate, 16 C, protein:ssDNA 1:2. The following applies: protein: recombinant; tags: His6-Mocr removed by TEV (N-terminal SNA left); single strand; in crystal two copies pair through 5' regions (12 bp, six non-Watson-Crick pairs/mismatches).

Data set [2] concerns the target T1, MsmTOP1 full length (topoisomerase I). Briefly: fluorescence anisotropy; no Mg2+, 0.1 mM EDTA; Anisotropy: 50 mM Tris-HCl pH 7.5, 100 mM NaCl, 0.1 mM EDTA, room temperature; crystal: 0.1 M Tris-HCl pH 8.5, 1.5 M lithium sulfate, 16 C, protein:ssDNA 1:2. The following applies: protein: recombinant; tags: His6-Mocr removed by TEV (N-terminal SNA left); label: 3' 6-carboxyfluorescein; single strand.

For another data set, the target named is T3, MsmTOP1-701t (D1-D5) (Mycobacterium smegmatis mc2 155, UniProt A0R5D9 1-701).
T3 sequence: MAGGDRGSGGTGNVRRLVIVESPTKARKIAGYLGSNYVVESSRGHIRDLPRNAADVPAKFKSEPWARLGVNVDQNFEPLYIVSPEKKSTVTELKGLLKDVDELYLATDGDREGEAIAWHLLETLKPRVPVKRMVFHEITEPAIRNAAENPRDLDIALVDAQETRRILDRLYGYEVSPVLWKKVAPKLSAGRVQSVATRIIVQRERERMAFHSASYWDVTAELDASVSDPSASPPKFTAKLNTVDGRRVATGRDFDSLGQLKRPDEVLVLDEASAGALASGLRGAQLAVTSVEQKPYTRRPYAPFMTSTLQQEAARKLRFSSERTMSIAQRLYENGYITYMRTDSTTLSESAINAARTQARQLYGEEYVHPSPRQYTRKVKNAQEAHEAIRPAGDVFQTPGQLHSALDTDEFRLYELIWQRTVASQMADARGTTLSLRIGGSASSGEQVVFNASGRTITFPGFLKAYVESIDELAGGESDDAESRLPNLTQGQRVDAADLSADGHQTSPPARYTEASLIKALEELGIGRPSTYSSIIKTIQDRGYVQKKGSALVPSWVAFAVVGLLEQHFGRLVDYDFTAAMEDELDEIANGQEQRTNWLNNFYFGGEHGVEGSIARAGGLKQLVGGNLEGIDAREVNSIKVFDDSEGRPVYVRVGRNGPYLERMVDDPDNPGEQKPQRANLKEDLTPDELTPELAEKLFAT
The data set is described as above. The following applies: protein: recombinant; tags: His6-Mocr removed by TEV (N-terminal SNA left); label: 3' 6-carboxyfluorescein; single strand.

B1: MTS3-14 (ssDNA)
DNA: CTTCCGCTTGACAT
With B1, the binding result in data set [1] is “binds”.

B2: MTS2-25 (ssDNA)
DNA: CAGTGAGCGAGCTTCCGCTTGACTT
As to B2, the binding result with MsmTOP1-839t (D1-D7) is “binds”.

B3: STS32 (ssDNA)
DNA: CAGTGAGCGAGCTTCCGCTTGACATCCCAATA
As usually defined, the Kd is the free concentration of one partner at which half of the binding sites on the other are occupied at equilibrium, for simple one-to-one binding. As to B3, the Kd in data set [2] was 0.3 nM; in the data set with MsmTOP1-701t (D1-D5), 14.9 nM.

For the origin of these results see article PMC7192597, “Mechanistic insights from structure of Mycobacterium smegmatis topoisomerase I with ssDNA bound to both N- and C-terminal domains”.
